What was measured:
[1] = target: DNA topoisomerase IIα (TOP2A), recombinant (UniProt P11388)
[2] = target: DNA topoisomerase I (TOP1), full-length recombinant (UniProt P11387)
UniProt P11387, sequence (P11387 whole entry): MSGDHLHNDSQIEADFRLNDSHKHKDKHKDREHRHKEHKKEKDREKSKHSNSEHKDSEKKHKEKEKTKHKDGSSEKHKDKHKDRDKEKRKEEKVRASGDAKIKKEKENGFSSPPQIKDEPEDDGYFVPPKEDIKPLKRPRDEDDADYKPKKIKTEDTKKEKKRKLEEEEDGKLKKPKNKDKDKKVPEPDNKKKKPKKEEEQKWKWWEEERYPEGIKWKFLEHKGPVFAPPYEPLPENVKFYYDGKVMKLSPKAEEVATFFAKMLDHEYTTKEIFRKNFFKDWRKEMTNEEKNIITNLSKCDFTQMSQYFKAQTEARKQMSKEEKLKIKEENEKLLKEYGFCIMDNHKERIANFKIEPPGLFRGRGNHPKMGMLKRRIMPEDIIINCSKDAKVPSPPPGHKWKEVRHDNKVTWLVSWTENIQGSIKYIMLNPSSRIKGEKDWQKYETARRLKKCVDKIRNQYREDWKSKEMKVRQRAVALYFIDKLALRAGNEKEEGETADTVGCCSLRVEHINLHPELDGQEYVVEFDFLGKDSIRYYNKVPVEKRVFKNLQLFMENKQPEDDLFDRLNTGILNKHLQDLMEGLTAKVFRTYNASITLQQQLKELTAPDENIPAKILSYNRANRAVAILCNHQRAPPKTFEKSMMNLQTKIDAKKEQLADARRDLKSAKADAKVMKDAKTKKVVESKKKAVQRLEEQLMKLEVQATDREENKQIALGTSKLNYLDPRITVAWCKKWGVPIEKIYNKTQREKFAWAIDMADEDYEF

UniProt P11388, sequence (P11388 whole entry): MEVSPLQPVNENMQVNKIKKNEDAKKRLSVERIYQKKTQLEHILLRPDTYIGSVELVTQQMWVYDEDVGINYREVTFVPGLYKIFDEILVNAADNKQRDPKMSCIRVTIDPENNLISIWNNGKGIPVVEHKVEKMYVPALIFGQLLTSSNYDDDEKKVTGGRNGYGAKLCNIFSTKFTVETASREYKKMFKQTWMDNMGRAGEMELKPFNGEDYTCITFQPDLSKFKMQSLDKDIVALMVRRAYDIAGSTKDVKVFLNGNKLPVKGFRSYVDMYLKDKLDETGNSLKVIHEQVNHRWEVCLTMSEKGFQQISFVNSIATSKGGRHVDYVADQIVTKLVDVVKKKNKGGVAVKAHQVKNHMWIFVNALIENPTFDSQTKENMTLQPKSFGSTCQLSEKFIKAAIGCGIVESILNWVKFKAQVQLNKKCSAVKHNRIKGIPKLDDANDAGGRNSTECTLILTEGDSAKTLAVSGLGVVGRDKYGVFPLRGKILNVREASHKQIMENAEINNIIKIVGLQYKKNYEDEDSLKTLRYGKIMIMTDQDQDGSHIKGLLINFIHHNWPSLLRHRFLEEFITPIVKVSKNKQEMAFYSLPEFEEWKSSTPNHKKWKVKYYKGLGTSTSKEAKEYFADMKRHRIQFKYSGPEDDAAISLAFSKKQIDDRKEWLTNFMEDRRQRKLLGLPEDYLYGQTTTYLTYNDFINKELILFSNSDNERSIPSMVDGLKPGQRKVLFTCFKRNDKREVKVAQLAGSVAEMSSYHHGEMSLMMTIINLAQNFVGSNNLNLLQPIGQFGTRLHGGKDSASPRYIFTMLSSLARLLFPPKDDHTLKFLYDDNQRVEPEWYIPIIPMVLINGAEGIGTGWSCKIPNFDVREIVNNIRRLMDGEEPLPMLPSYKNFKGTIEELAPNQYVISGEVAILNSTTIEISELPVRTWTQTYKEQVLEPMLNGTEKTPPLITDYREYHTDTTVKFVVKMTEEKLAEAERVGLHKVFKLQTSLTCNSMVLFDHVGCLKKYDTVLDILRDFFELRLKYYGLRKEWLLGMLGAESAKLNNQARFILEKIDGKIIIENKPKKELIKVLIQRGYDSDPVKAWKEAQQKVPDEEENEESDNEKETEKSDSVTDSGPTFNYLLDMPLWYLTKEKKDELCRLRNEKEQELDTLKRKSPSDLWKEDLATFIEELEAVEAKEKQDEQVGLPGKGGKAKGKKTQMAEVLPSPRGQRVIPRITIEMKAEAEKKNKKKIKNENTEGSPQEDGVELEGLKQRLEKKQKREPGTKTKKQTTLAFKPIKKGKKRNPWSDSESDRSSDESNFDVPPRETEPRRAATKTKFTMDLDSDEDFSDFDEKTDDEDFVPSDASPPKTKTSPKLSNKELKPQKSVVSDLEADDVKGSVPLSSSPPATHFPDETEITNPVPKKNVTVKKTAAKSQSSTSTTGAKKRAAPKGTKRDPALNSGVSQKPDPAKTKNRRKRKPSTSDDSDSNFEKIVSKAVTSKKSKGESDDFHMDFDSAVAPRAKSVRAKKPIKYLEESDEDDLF

Row | stimulation of BLM unwinding of dsDNA substrate by 7 nM TOP2A (fold change relative to minus TOP2A) [1] | stimulation of BLM unwinding of RNA:DNA substrate by a two-fold molar excess of TOP1 (specific activity with against without TOP1) [2] | Substance
1 | 3 fold |  | BLM-Δ1332–1349, recombinant (from UniProt P54132 1-1417) (enzyme)
2 |  | 1.5 fold | BLM wild-type (WT), recombinant (from UniProt P54132 1-1417) (enzyme)

Reference: paper PMC5042399
